Among the data in article PMC3602593 are Kd, koff and kon values, retold here.

For this experiment, the target named is DARPin H10-2-G3. Kind of experiment: SPR; G3 DARPin amine-coupled (about 1,200 RU) on a GLC chip, ProteOn XPR36; HER2 constructs injected as analyte (One-Shot Kinetics, 30 uL/min, 120 s); 25°C; HBS-EBP+ (10 mM HEPES, 150 mM NaCl, 3 mM EDTA, 0.1% BSA, 0.05% Tween 20); global fit to a 1:1 model, KD = kd/ka.

Consider “HER2 extracellular domain, residues 1-623, Leu 525→Ala (from UniProt P04626 23-645) (domain or fragment)”, for which the Kd turned out to be 0.265 µM, the koff came out at 0.0393 s⁻¹ and the kon turned out to be 149000 M⁻¹ s⁻¹.

Substance “human epidermal growth factor receptor 2 (HER2) extracellular domain, residues 1-623, wild type (from UniProt P04626 23-645) (domain or fragment)” displayed a Kd of 0.0033 µM, a koff of 0.00107 s⁻¹ and a kon of 322000 M⁻¹ s⁻¹.

As to “HER2 extracellular domain, residues 1-623, Val 552→Ala (from UniProt P04626 23-645) (domain or fragment)”, the Kd was determined as 0.38 µM, the koff was 0.064 s⁻¹ and the kon stood at 169000 M⁻¹ s⁻¹.

“HER2 extracellular domain, residues 1-623, Ser 551→Ala (from UniProt P04626 23-645) (domain or fragment)” came in with a Kd of 0.0128 µM, a koff of 0.0035 s⁻¹ and a kon of 285000 M⁻¹ s⁻¹.

Consider “HER2 extracellular domain, residues 1-623, Phe 555→Ala (from UniProt P04626 23-645) (domain or fragment)”, for which the Kd was found to be 0.21 µM, the koff came out at 0.0384 s⁻¹ and the kon came to 184000 M⁻¹ s⁻¹.
